Data set [1] deals with T1, KOD-H4 DNA polymerase V93Q;I114T;D141A;E143A;S383K;K429G;F445L;A485L;Y493V;Y496H;Y497M;Y499F;A500E;R501N;I521L;E664K;K726R;N735K (Thermococcus kodakarensis KOD?) (UniProt D0VWU9).
T1 sequence: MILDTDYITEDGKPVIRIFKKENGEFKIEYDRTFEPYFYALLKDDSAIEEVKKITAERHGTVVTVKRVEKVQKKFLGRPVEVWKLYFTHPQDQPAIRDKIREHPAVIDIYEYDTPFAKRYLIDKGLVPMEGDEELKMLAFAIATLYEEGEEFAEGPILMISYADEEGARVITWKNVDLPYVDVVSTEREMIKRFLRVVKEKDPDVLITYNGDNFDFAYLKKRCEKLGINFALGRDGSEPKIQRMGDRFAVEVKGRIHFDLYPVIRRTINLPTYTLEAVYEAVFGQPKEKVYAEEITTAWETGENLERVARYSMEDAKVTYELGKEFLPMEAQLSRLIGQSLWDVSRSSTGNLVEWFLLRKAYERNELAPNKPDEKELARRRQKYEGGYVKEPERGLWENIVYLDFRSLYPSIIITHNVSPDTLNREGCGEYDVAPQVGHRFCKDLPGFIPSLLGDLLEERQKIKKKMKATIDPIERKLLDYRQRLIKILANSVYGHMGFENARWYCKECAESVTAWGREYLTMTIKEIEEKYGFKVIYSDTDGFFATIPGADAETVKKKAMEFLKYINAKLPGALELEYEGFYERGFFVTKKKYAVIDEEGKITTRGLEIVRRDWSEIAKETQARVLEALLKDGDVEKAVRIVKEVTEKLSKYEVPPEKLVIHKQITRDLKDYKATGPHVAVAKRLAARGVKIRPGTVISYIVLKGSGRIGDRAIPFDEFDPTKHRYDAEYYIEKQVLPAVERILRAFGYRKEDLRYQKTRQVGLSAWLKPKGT
Kind of data set: fluorescence polarization. The conditions noted are these: template fully HNA (1,5-anhydrohexitol nucleic acid); primer DNA; FP: 1x ThermoPol (20 mM Tris-HCl, 10 mM (NH4)2SO4, 10 mM KCl, 2 mM MgSO4, 0.1% Triton X-100, pH 8.8), 25 C, 20 min, 5 nM labeled primer.

The target in data set [2] is T2, Tgo-H4 (RT-H4) DNA polymerase V93Q;I114T;D141A;E143A;S383K;E429G;F445L;A485L;F493V;Y496H;Y497M;Y499F;A500E;K501N;I521L;E664K;K726R;N735K (UniProt P56689).
T2 sequence: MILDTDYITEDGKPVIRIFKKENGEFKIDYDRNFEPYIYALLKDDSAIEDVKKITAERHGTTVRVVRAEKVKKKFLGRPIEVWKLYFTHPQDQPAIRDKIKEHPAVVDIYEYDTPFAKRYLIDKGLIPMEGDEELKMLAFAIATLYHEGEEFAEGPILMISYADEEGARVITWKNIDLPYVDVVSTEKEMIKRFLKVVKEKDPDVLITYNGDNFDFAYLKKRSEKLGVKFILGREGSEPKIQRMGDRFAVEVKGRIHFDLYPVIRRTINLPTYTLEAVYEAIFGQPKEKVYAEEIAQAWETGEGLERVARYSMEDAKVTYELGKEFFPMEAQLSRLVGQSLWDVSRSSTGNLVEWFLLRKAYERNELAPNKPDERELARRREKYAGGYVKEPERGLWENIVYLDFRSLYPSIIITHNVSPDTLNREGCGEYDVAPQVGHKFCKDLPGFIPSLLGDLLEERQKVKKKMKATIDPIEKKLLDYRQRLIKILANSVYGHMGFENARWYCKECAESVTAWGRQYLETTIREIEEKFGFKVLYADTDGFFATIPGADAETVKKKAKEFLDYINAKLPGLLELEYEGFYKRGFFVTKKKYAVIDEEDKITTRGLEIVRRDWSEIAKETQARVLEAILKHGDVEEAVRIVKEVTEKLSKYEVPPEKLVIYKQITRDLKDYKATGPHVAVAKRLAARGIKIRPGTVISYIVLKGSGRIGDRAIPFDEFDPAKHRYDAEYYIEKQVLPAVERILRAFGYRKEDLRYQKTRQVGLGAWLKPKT
In words: fluorescence polarization. The note with it: template fully HNA (1,5-anhydrohexitol nucleic acid); primer DNA; FP: 1x ThermoPol (20 mM Tris-HCl, 10 mM (NH4)2SO4, 10 mM KCl, 2 mM MgSO4, 0.1% Triton X-100, pH 8.8), 25 C, 20 min, 5 nM labeled primer. In general terms: In fluorescence polarisation assays a small probe gives low polarisation when free and higher when bound to something large.

Data set [3] concerns the target T3, Tgo-H4 (RT-H4) DNA polymerase (UniProt P56689 1-773, V93Q;I114T;D141A;E143A;S383K;E429G;F445L;A485L;F493V;Y496H;Y497M;Y499F;A500E;K50 …).
T3 sequence: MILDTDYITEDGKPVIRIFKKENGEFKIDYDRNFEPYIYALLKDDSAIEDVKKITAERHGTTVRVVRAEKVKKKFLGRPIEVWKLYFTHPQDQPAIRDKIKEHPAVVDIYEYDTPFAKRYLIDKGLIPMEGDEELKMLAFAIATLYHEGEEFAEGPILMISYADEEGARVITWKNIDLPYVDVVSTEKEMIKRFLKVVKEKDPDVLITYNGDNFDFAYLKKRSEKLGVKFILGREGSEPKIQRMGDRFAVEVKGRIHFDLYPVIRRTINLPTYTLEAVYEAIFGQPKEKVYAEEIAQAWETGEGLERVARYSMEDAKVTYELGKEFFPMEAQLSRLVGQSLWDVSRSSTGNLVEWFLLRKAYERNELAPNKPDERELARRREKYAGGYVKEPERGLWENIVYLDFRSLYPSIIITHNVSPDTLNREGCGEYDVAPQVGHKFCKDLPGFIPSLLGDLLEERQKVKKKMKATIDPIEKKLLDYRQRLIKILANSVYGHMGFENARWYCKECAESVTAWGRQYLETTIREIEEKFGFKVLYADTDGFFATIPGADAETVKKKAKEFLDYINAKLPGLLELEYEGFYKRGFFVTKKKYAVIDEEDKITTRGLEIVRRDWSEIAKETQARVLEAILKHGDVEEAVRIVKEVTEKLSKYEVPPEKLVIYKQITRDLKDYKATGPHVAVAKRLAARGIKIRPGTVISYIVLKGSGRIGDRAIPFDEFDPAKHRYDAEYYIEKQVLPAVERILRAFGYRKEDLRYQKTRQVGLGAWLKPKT
In words: fluorescence polarization; 2 mM MgSO4; apparent KD, Hill slope 1.66; FP: 1x ThermoPol (20 mM Tris-HCl, 10 mM (NH4)2SO4, 10 mM KCl, 2 mM MgSO4, 0.1% Triton X-100, pH 8.8), 25 C, 20 min, 5 nM labeled primer. The note with it: protein: recombinant; label: 5'-6-FAM on primer; 5' overhang 6 nt on template; 10-nt duplex.

Data set [4] deals with T4, KOD-H4 DNA polymerase (UniProt D0VWU9 1-774, V93Q;I114T;D141A;E143A;S383K;K429G;F445L;A485L;Y493V;Y496H;Y497M;Y499F;A500E;R50 …).
T4 sequence: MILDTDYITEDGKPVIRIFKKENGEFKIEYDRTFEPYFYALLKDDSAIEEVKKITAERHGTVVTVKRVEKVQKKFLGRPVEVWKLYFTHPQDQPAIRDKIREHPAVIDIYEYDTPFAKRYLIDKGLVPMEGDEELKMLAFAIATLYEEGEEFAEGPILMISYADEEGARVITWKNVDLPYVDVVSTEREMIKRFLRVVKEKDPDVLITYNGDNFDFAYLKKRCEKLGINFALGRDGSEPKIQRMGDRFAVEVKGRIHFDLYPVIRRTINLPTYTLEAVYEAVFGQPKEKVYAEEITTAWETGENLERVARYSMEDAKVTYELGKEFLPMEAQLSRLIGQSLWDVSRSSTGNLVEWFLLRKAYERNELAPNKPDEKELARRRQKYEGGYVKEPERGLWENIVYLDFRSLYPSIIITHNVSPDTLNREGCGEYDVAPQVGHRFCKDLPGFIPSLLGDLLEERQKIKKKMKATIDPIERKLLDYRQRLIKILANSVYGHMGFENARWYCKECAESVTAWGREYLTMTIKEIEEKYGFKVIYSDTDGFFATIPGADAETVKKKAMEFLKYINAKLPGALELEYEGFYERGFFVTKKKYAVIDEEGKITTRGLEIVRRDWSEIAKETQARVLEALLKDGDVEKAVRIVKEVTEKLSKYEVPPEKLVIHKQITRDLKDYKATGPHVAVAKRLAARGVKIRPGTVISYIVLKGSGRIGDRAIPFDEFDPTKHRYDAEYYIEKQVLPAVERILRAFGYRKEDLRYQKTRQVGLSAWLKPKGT
In words: fluorescence polarization; 2 mM MgSO4; apparent KD, Hill slope 1.67; FP: 1x ThermoPol (20 mM Tris-HCl, 10 mM (NH4)2SO4, 10 mM KCl, 2 mM MgSO4, 0.1% Triton X-100, pH 8.8), 25 C, 20 min, 5 nM labeled primer. The note with it: protein: recombinant; label: 5'-6-FAM on primer; 5' overhang 6 nt on template; 10-nt duplex.

The target of data set [5] is T4, KOD-H4 DNA polymerase. Kind of data set: X-ray crystallography; dGTP analogue dGMPNPP-type (alpha,beta-imido, NHdGTP); Mg2+ or Mg2+/Mn2+; FP: 1x ThermoPol (20 mM Tris-HCl, 10 mM (NH4)2SO4, 10 mM KCl, 2 mM MgSO4, 0.1% Triton X-100, pH 8.8), 25 C, 20 min, 5 nM labeled primer. The note with it: protein: recombinant; 5' overhang 3 nt on template; 13-nt duplex.

On to “GACCACGGCC / AACTGTGGCCGTGGTC [DNA primer/HNA template (FP)]”, for which the figures for the Kd in data set [1] and in data set [2] were 80.2 nM and 61.5 nM, respectively.

B1: DNA primer/DNA template (FP) (dsDNA)
DNA 1: GACCACGGCC
DNA 2: AACTGTGGCCGTGGTC
As to B1, the figures for the Kd in data set [3] and in data set [4] were 10 nM and 12.5 nM, respectively.

B2: 13mer DNA primer/DNA template (crystal) (dsDNA)
DNA 1: GACCACGGCCACA
DNA 2: AACTGTGGCCGTGGTC
Consider B2, for which the binding result in data set [5] is “binds”.

Values taken from publication PMC11724289, “Structural insights into a DNA polymerase reading the xeno nucleic acid HNA”.
